Consider one molecule from patent publication US20250288612A1 (TOPMUNNITY THERAPEUTICS TAIWAN, published 2025).

The target of this assay is T1, recombinant PD-L1 (UniProt Q9NZQ7 19-238, limits assumed).
T1 construct: also called Programmed Death-Ligand 1
The assay can be described thus: SPR, Biacore T200, multi-cycle kinetics, hTT-01 captured on Protein A chip, PD-L1 as analyte, 25 C. As for the experimental part:
The chip contains MabSelect SuRe ligand on the surface, allowing orientation-specific binding of the Fc region of an antibody.
The assay was performed by using the Kinetic/Affinity wizard. The Flow path was 2-1, as the ligand was injected and captured in Flow cell 2 and Flow cell 1 acted as a reference. A series of concentrations of PD-L1 were injected over the reference and the ligand surface consecutively as the association phase with short dissociation phases in between by injection running buffer. Then regeneration solution was injected as the regeneration phase. All the procedures were conducted at 25° C.

T1 sequence (Q9NZQ7 19-238 limits assumed): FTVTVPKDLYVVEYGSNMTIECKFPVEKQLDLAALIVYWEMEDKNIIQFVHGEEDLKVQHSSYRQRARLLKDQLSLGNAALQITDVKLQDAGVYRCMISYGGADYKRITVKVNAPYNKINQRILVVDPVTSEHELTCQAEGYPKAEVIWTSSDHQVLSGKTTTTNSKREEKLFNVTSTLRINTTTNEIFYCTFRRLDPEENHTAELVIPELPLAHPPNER

B1: humanized anti-PD-L1 monoclonal antibody hTT-01 (antibody, V domains shown)
VH: EVQLVESGGGLVKPGGSLRLSCAASGFSLSNYVMSWVRQAPGKGLEWVATISSGGRYIYYTDSVKGRFTISRDNAKNSLYLQMNSLRAEDTAVYYCARDGSTLYYFDYWGQGTTVTVSS
VL: QTVLTQSPATLSLSPGERATLSCSASSSVDYMYWYQQKPGQAPRLLIYDTSNLATGIPARFSGSGSGTDFTLTISSLEPEDFATYYCQQWSSSPPITFGQGTKVEIK
notes: It was captured through its Fc on a Protein A chip, and an anti-human IgG secondary antibody was used in FACS; also called TT-01 humanized monoclonal antibody
Broadly, the Kd is a measure of binding affinity in units of concentration. As a reminder, the koff is a measure of how fast the partners let go of each other. The term kon denotes the second-order rate constant of association. With B1, the Kd was found to be 2.56 nM, the “half-life (t1/2) of the interaction” value was found to be 1.31 h, the koff came out at 0.000147 s⁻¹ and the kon turned out to be 57700 M⁻¹ s⁻¹.
